Reference: article PMC3701624, “Three-Dimensional Structure of Human NLRP10/PYNOD Pyrin Domain Reveals a Homotypic Interaction Site Distinct from Its Mouse Homologue” (PLoS ONE, 2013)
Values belong to the binder of their own block, whether it stands above or below them.

Key:
[1] = target: T1, MBP-huNLRP10ΔPYD (Arg103-Ile655) (Homo sapiens (Human), UniProt Q86W26); assay: size-exclusion chromatography and pull-down (data not shown)
T1 chain: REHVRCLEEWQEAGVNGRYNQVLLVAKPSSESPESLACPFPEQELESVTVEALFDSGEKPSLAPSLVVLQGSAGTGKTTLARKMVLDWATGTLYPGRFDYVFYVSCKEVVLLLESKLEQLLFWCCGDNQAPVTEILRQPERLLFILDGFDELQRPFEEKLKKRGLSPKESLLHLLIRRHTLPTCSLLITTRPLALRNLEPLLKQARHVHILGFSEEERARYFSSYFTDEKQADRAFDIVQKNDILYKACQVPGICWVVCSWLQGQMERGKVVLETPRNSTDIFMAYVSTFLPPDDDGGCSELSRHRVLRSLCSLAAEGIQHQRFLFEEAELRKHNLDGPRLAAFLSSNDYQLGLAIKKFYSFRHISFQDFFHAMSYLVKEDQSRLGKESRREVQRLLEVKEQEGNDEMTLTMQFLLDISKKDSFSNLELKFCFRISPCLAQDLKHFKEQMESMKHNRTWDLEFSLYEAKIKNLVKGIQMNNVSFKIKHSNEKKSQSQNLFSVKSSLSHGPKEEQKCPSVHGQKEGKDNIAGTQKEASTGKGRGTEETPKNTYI

[2] = substrate: Nc1ncnc2c1ncn2[C@@H]1O[C@H](COP(=O)(O)OP(=O)(O)OP(=O)(O)O)[C@@H](O)[C@H]1O; assay: malachite green phosphate release, Lineweaver-Burk; assay type: biochemical, Homo sapiens; settings: 50 mM Tris-HCl pH 8.0, 10 mM MgCl2, 37°C, 3 µM protein, 0.1–3.2 mM nucleotide
Description: (§1) malachite green phosphate release, Lineweaver-Burk on MBP-huNLRP10 (huNLRP10, PYNOD)

[3] = substrate: Nc1nc2c(ncn2[C@@H]2O[C@H](COP(=O)(O)OP(=O)(O)OP(=O)(O)O)[C@@H](O)[C@H]2O)c(=O)[nH]1; assay: malachite green phosphate release, Lineweaver-Burk; assay type: biochemical, Homo sapiens; settings: 50 mM Tris-HCl pH 8.0, 10 mM MgCl2, 37°C, 3 µM protein, 0.1–3.2 mM nucleotide
Description: as §1

[4] = substrate: Nc1ncnc2c1ncn2[C@@H]1O[C@H](COP(=O)(O)OP(=O)(O)OP(=O)(O)O)[C@@H](O)[C@H]1O; assay: malachite green phosphate release, Lineweaver-Burk; assay type: biochemical, Homo sapiens; settings: 50 mM Tris-HCl pH 8.0, 10 mM MgCl2, 37°C, 3 µM protein, 0.1–3.2 mM nucleotide; remark: listed apart in the source
Description: (§2) malachite green phosphate release, Lineweaver-Burk on MBP-huNLRP10ΔPYD (huNLRP10ΔPYD)

[5] = substrate: Nc1nc2c(ncn2[C@@H]2O[C@H](COP(=O)(O)OP(=O)(O)OP(=O)(O)O)[C@@H](O)[C@H]2O)c(=O)[nH]1; assay: malachite green phosphate release, Lineweaver-Burk; assay type: biochemical, Homo sapiens; settings: 50 mM Tris-HCl pH 8.0, 10 mM MgCl2, 37°C, 3 µM protein, 0.1–3.2 mM nucleotide; remark: listed apart in the source
Description: as §2

- binding result [1]: no binding
B1: human NLRP10/PYNOD pyrin domain (residues 1-100) (protein)
chain: MAMAKARKPREALLWALSDLEENDFKKLKFYLRDMTLSEGQPPLARGELEGLIPVDLAELLISKYGEKEAVKVVLKGLKVMNLLELVDQLSHICLHDYRE

B2: MBP-huNLRP10 (huNLRP10, PYNOD) (Homo sapiens) (protein)
chain: MAMAKARKPREALLWALSDLEENDFKKLKFYLRDMTLSEGQPPLARGELEGLIPVDLAELLISKYGEKEAVKVVLKGLKVMNLLELVDQLSHICLHDYREVYREHVRCLEEWQEAGVNGRYNQVLLVAKPSSESPESLACPFPEQELESVTVEALFDSGEKPSLAPSLVVLQGSAGTGKTTLARKMVLDWATGTLYPGRFDYVFYVSCKEVVLLLESKLEQLLFWCCGDNQAPVTEILRQPERLLFILDGFDELQRPFEEKLKKRGLSPKESLLHLLIRRHTLPTCSLLITTRPLALRNLEPLLKQARHVHILGFSEEERARYFSSYFTDEKQADRAFDIVQKNDILYKACQVPGICWVVCSWLQGQMERGKVVLETPRNSTDIFMAYVSTFLPPDDDGGCSELSRHRVLRSLCSLAAEGIQHQRFLFEEAELRKHNLDGPRLAAFLSSNDYQLGLAIKKFYSFRHISFQDFFHAMSYLVKEDQSRLGKESRREVQRLLEVKEQEGNDEMTLTMQFLLDISKKDSFSNLELKFCFRISPCLAQDLKHFKEQMESMKHNRTWDLEFSLYEAKIKNLVKGIQMNNVSFKIKHSNEKKSQSQNLFSVKSSLSHGPKEEQKCPSVHGQKEGKDNIAGTQKEASTGKGRGTEETPKNTYI
notes: full length (Met1-Ile655), N-terminal His6-MBP fusion (pETM41), tag kept; E. coli BL21(DE3)
- Km [2]: 169.3 ± 7.3 µM
- Km [3]: 295.6 ± 11.0 µM

B3: MBP-huNLRP10ΔPYD (huNLRP10ΔPYD) (Homo sapiens) (protein)
chain: REHVRCLEEWQEAGVNGRYNQVLLVAKPSSESPESLACPFPEQELESVTVEALFDSGEKPSLAPSLVVLQGSAGTGKTTLARKMVLDWATGTLYPGRFDYVFYVSCKEVVLLLESKLEQLLFWCCGDNQAPVTEILRQPERLLFILDGFDELQRPFEEKLKKRGLSPKESLLHLLIRRHTLPTCSLLITTRPLALRNLEPLLKQARHVHILGFSEEERARYFSSYFTDEKQADRAFDIVQKNDILYKACQVPGICWVVCSWLQGQMERGKVVLETPRNSTDIFMAYVSTFLPPDDDGGCSELSRHRVLRSLCSLAAEGIQHQRFLFEEAELRKHNLDGPRLAAFLSSNDYQLGLAIKKFYSFRHISFQDFFHAMSYLVKEDQSRLGKESRREVQRLLEVKEQEGNDEMTLTMQFLLDISKKDSFSNLELKFCFRISPCLAQDLKHFKEQMESMKHNRTWDLEFSLYEAKIKNLVKGIQMNNVSFKIKHSNEKKSQSQNLFSVKSSLSHGPKEEQKCPSVHGQKEGKDNIAGTQKEASTGKGRGTEETPKNTYI
notes: NOD only, pyrin domain removed (Arg103-Ile655), N-terminal His6-MBP fusion (pETM41), tag kept; E. coli BL21(DE3)
- Km [4]: 201.9 ± 1.9 µM
- Km [5]: 193.7 ± 17.1 µM
